Measurements published in US20130315910A1 (Xencor, published 2013).

T1: human FcγRIIb receptor protein (R&D Systems) (human, UniProt P31994 46-217)
T1 construct: Bought protein injected over captured antibody in Biacore; also called CD32b
T1 sequence (looked up): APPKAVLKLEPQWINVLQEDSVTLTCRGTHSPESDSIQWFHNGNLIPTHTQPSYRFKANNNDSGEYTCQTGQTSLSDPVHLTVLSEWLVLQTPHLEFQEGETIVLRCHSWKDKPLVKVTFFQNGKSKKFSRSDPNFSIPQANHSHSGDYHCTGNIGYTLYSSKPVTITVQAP

T2: human FcγRIIa (131R), His- and GST-tagged (human, UniProt P12318 34-217)
T2 construct: Expressed in HEK293T cells, purified by nickel chromatography; also called R131 FcγRIIa; not shown: 6xHis and GST tags of the pTT5 vector
T2 sequence (looked up): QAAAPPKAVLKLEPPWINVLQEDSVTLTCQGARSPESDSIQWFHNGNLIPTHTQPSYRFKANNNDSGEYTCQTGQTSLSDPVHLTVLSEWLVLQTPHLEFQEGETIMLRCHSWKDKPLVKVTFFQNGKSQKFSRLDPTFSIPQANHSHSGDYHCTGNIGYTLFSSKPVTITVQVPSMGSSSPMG

T3: human FcγRIIa (131H), His- and GST-tagged (human, UniProt P12318 34-217)
T3 construct: also called H131 FcγRIIa; HIIa; not shown: 6xHis and GST tags of the pTT5 vector
T3 sequence (looked up): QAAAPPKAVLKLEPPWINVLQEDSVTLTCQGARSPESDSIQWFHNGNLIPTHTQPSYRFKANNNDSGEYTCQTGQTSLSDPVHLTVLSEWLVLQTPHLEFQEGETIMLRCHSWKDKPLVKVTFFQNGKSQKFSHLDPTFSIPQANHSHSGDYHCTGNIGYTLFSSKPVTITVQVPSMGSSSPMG


Key:
Experiment in all cases: SPR
[1] = biological target: T1, human FcγRIIb receptor protein (R&D …)
[2] = biological target: T4, human FcγRI receptor protein (R&D Systems) (human, UniProt P12314 16-288)
T4 construct: also called soluble FcγRI; solFcγRI
T4 sequence (P12314 16-288 limits assumed): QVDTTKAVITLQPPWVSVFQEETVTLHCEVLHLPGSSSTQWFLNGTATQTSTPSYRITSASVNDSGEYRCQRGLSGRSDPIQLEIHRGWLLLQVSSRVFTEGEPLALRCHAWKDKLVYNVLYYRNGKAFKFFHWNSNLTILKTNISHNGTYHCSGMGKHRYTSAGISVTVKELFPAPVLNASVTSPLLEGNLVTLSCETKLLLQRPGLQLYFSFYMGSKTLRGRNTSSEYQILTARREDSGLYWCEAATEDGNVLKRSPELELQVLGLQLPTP

[3] = biological target: T2, human FcγRIIa (131R), His- and …
[4] = biological target: T3, human FcγRIIa (131H), His- and …
[5] = biological target: T5, human FcγRIIIa (158V), His- and GST-tagged (human, UniProt P08637 17-208)
T5 construct: also called V158 FcγRIIIa; VIIIa; not shown: 6xHis and GST tags of the pTT5 vector
T5 sequence (P08637 17-208 F176V): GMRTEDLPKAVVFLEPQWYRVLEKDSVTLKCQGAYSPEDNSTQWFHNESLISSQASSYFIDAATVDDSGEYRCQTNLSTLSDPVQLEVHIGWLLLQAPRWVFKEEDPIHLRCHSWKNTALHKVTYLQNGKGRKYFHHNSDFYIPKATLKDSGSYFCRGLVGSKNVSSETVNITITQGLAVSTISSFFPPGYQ

Binder	Fold vs WT IgG1 [1] [fold]	Kd [1] [µM]	Fold vs WT IgG1 [2] [fold]	Kd [2] [µM]	Fold vs WT IgG1 [3] [fold]	Kd [3] [µM]	Fold vs WT IgG1 [4] [fold]	Kd [4] [µM]	binding result [5]	Fold vs WT IgG1 [5] [fold]	Kd [5] [µM]	binding result [4]
G236D/S239D/S267E (antibody, human IgG1, kappa, HuAM4G7 anti-CD19 IgG1 (m1) with these Fc substitutions, EU index; copies: 2 + 2) heavy: EVQLVESGGGLVKPGGSLKLSCAASGYTFTSYVMHWVRQAPGKGLEWIGYINPYNDGTKYNEKFQGRVTISSDKSISTAYMELSSLRSEDTAMYYCARGTYYYGTRVFDYWGQGTLVTVSSASTKGPSVFPLAPSSKSTSGGTAALGCLVKDYFPEPVTVSWNSGALTSGVHTFPAVLQSSGLYSLSSVVTVPSSSLGTQTYICNVNHKPSNTKVDKKVEPKSCDKTHTCPPCPAPELLDGPDVFLFPPKPKDTLMISRTPEVTCVVVDVEHEDPEVKFNWYVDGVEVHNAKTKPREEQYNSTYRVVSVLTVLHQDWLNGKEYKCKVSNKALPAPIEKTISKAKGQPREPQVYTLPPSREEMTKNQVSLTCLVKGFYPSDIAVEWESNGQPENNYKTTPPVLDSDGSFFLYSKLTVDKSRWQQGNVFSCSVMHEALHNHYTQKSLSLSPGK light: DIVMTQSPATLSLSPGERATLSCRSSKSLQNVNGNTYLYWFQQKPGQSPQLLIYRMSNLNSGVPDRFSGSGSGTEFTLTISSLEPEDFAVYYCMQHLEYPITFGAGTKLEIKRTVAAPSVFIFPPSDEQLKSGTASVVCLLNNFYPREAKVQWKVDNALQSGNSQESVTEQDSKDSTYSLSSTLTLSKADYEKHKVYACEVTHQGLSSPVTKSFNRGEC	84.8	0.0173	0.0685	0.00481	26.7	0.0322	0.217	2.98	no binding	–	–	–
L234F/S267E (antibody, human IgG1, kappa, HuAM4G7 anti-CD19 IgG1 (m1) with these Fc substitutions, EU index; copies: 2 + 2) heavy: not shown light: DIVMTQSPATLSLSPGERATLSCRSSKSLQNVNGNTYLYWFQQKPGQSPQLLIYRMSNLNSGVPDRFSGSGSGTEFTLTISSLEPEDFAVYYCMQHLEYPITFGAGTKLEIKRTVAAPSVFIFPPSDEQLKSGTASVVCLLNNFYPREAKVQWKVDNALQSGNSQESVTEQDSKDSTYSLSSTLTLSKADYEKHKVYACEVTHQGLSSPVTKSFNRGEC	26.4	0.0557	0.661	0.000498	20.7	0.0416	0.509	1.27	–	0.0938	2.04	–
G236T (antibody, human IgG1, kappa, HuAM4G7 anti-CD19 IgG1 (m1) with this Fc substitution, EU index; copies: 2 + 2) heavy: not shown light: DIVMTQSPATLSLSPGERATLSCRSSKSLQNVNGNTYLYWFQQKPGQSPQLLIYRMSNLNSGVPDRFSGSGSGTEFTLTISSLEPEDFAVYYCMQHLEYPITFGAGTKLEIKRTVAAPSVFIFPPSDEQLKSGTASVVCLLNNFYPREAKVQWKVDNALQSGNSQESVTEQDSKDSTYSLSSTLTLSKADYEKHKVYACEVTHQGLSSPVTKSFNRGEC	0.00225	652	0.0157	0.021	0.35	2.46	0.486	1.33	no binding	–	–	–
L234W (antibody, human IgG1, kappa, HuAM4G7 anti-CD19 IgG1 (m1) with this Fc substitution, EU index; copies: 2 + 2) heavy: not shown light: DIVMTQSPATLSLSPGERATLSCRSSKSLQNVNGNTYLYWFQQKPGQSPQLLIYRMSNLNSGVPDRFSGSGSGTEFTLTISSLEPEDFAVYYCMQHLEYPITFGAGTKLEIKRTVAAPSVFIFPPSDEQLKSGTASVVCLLNNFYPREAKVQWKVDNALQSGNSQESVTEQDSKDSTYSLSSTLTLSKADYEKHKVYACEVTHQGLSSPVTKSFNRGEC	–	1.77	–	0.0105	–	–	–	1.16	–	–	6.59	–
L234E/S267E (antibody, human IgG1, kappa, HuAM4G7 anti-CD19 IgG1 (m1) with these Fc substitutions, EU index; copies: 2 + 2) heavy: not shown light: DIVMTQSPATLSLSPGERATLSCRSSKSLQNVNGNTYLYWFQQKPGQSPQLLIYRMSNLNSGVPDRFSGSGSGTEFTLTISSLEPEDFAVYYCMQHLEYPITFGAGTKLEIKRTVAAPSVFIFPPSDEQLKSGTASVVCLLNNFYPREAKVQWKVDNALQSGNSQESVTEQDSKDSTYSLSSTLTLSKADYEKHKVYACEVTHQGLSSPVTKSFNRGEC	15.1	0.097	0.131	0.00251	10.7	0.0804	–	–	no binding	–	–	no binding
L234E/S267E/L328F (antibody, human IgG1, kappa, HuAM4G7 anti-CD19 IgG1 (m1) with these Fc substitutions, EU index; copies: 2 + 2) heavy: EVQLVESGGGLVKPGGSLKLSCAASGYTFTSYVMHWVRQAPGKGLEWIGYINPYNDGTKYNEKFQGRVTISSDKSISTAYMELSSLRSEDTAMYYCARGTYYYGTRVFDYWGQGTLVTVSSASTKGPSVFPLAPSSKSTSGGTAALGCLVKDYFPEPVTVSWNSGALTSGVHTFPAVLQSSGLYSLSSVVTVPSSSLGTQTYICNVNHKPSNTKVDKKVEPKSCDKTHTCPPCPAPEELGGPSVFLFPPKPKDTLMISRTPEVTCVVVDVEHEDPEVKFNWYVDGVEVHNAKTKPREEQYNSTYRVVSVLTVLHQDWLNGKEYKCKVSNKAFPAPIEKTISKAKGQPREPQVYTLPPSREEMTKNQVSLTCLVKGFYPSDIAVEWESNGQPENNYKTTPPVLDSDGSFFLYSKLTVDKSRWQQGNVFSCSVMHEALHNHYTQKSLSLSPGK light: DIVMTQSPATLSLSPGERATLSCRSSKSLQNVNGNTYLYWFQQKPGQSPQLLIYRMSNLNSGVPDRFSGSGSGTEFTLTISSLEPEDFAVYYCMQHLEYPITFGAGTKLEIKRTVAAPSVFIFPPSDEQLKSGTASVVCLLNNFYPREAKVQWKVDNALQSGNSQESVTEQDSKDSTYSLSSTLTLSKADYEKHKVYACEVTHQGLSSPVTKSFNRGEC	195	0.00753	0.0425	0.00775	174	0.00493	0.0725	8.92	no binding	–	–	–
G236D/S267E/L328F (antibody, human IgG1, kappa, HuAM4G7 anti-CD19 IgG1 (m1) with these Fc substitutions, EU index; copies: 2 + 2) heavy: EVQLVESGGGLVKPGGSLKLSCAASGYTFTSYVMHWVRQAPGKGLEWIGYINPYNDGTKYNEKFQGRVTISSDKSISTAYMELSSLRSEDTAMYYCARGTYYYGTRVFDYWGQGTLVTVSSASTKGPSVFPLAPSSKSTSGGTAALGCLVKDYFPEPVTVSWNSGALTSGVHTFPAVLQSSGLYSLSSVVTVPSSSLGTQTYICNVNHKPSNTKVDKKVEPKSCDKTHTCPPCPAPELLDGPSVFLFPPKPKDTLMISRTPEVTCVVVDVEHEDPEVKFNWYVDGVEVHNAKTKPREEQYNSTYRVVSVLTVLHQDWLNGKEYKCKVSNKAFPAPIEKTISKAKGQPREPQVYTLPPSREEMTKNQVSLTCLVKGFYPSDIAVEWESNGQPENNYKTTPPVLDSDGSFFLYSKLTVDKSRWQQGNVFSCSVMHEALHNHYTQKSLSLSPGK light: DIVMTQSPATLSLSPGERATLSCRSSKSLQNVNGNTYLYWFQQKPGQSPQLLIYRMSNLNSGVPDRFSGSGSGTEFTLTISSLEPEDFAVYYCMQHLEYPITFGAGTKLEIKRTVAAPSVFIFPPSDEQLKSGTASVVCLLNNFYPREAKVQWKVDNALQSGNSQESVTEQDSKDSTYSLSSTLTLSKADYEKHKVYACEVTHQGLSSPVTKSFNRGEC	149	0.00987	0.0736	0.00448	59.9	0.0143	0.0301	21.5	no binding	–	–	–
G236D/S267E/H268E (antibody, human IgG1, kappa, HuAM4G7 anti-CD19 IgG1 (m1) with these Fc substitutions, EU index; copies: 2 + 2) heavy: EVQLVESGGGLVKPGGSLKLSCAASGYTFTSYVMHWVRQAPGKGLEWIGYINPYNDGTKYNEKFQGRVTISSDKSISTAYMELSSLRSEDTAMYYCARGTYYYGTRVFDYWGQGTLVTVSSASTKGPSVFPLAPSSKSTSGGTAALGCLVKDYFPEPVTVSWNSGALTSGVHTFPAVLQSSGLYSLSSVVTVPSSSLGTQTYICNVNHKPSNTKVDKKVEPKSCDKTHTCPPCPAPELLDGPSVFLFPPKPKDTLMISRTPEVTCVVVDVEEEDPEVKFNWYVDGVEVHNAKTKPREEQYNSTYRVVSVLTVLHQDWLNGKEYKCKVSNKALPAPIEKTISKAKGQPREPQVYTLPPSREEMTKNQVSLTCLVKGFYPSDIAVEWESNGQPENNYKTTPPVLDSDGSFFLYSKLTVDKSRWQQGNVFSCSVMHEALHNHYTQKSLSLSPGK light: DIVMTQSPATLSLSPGERATLSCRSSKSLQNVNGNTYLYWFQQKPGQSPQLLIYRMSNLNSGVPDRFSGSGSGTEFTLTISSLEPEDFAVYYCMQHLEYPITFGAGTKLEIKRTVAAPSVFIFPPSDEQLKSGTASVVCLLNNFYPREAKVQWKVDNALQSGNSQESVTEQDSKDSTYSLSSTLTLSKADYEKHKVYACEVTHQGLSSPVTKSFNRGEC	110	0.0134	0.0902	0.00365	29.9	0.0287	0.103	6.3	no binding	–	–	–
G237D/S267E (antibody, human IgG1, kappa, HuAM4G7 anti-CD19 IgG1 (m1) with these Fc substitutions, EU index; copies: 2 + 2) heavy: not shown light: DIVMTQSPATLSLSPGERATLSCRSSKSLQNVNGNTYLYWFQQKPGQSPQLLIYRMSNLNSGVPDRFSGSGSGTEFTLTISSLEPEDFAVYYCMQHLEYPITFGAGTKLEIKRTVAAPSVFIFPPSDEQLKSGTASVVCLLNNFYPREAKVQWKVDNALQSGNSQESVTEQDSKDSTYSLSSTLTLSKADYEKHKVYACEVTHQGLSSPVTKSFNRGEC	17	0.0861	0.0874	0.00377	13.6	0.0631	–	–	no binding	–	–	no binding
